For experiment [1], the target named is T1, IL-18 binding protein (IL-18BP) (UniProt O95998 31-194).
T1 sequence (looked up): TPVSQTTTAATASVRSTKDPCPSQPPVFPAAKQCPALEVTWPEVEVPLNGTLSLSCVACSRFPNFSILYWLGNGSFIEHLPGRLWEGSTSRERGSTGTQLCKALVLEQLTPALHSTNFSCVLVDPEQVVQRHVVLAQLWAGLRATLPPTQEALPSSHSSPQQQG
Nature of the experiment: cell-based or functional assay.

The target in experiment [2] is T2, IL-18 receptors on HEK-Blue IL-18 reporter cells (UniProt Q13478 19-541; O95256 20-599, limits assumed).
T2 sequence (looked up) 1: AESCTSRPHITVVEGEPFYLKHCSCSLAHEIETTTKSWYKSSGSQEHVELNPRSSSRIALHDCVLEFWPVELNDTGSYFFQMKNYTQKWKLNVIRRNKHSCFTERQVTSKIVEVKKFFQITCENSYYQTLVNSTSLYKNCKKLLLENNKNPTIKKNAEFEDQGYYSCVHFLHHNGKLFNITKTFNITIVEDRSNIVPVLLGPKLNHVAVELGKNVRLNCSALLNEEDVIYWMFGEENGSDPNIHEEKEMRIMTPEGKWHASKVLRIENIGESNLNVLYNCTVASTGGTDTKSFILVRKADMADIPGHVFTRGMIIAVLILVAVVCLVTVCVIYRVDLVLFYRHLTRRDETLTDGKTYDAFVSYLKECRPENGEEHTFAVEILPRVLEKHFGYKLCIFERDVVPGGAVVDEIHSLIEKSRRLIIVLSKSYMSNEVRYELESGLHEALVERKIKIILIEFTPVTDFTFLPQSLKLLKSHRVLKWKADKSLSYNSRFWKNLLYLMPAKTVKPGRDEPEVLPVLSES
T2 sequence (looked up) 2: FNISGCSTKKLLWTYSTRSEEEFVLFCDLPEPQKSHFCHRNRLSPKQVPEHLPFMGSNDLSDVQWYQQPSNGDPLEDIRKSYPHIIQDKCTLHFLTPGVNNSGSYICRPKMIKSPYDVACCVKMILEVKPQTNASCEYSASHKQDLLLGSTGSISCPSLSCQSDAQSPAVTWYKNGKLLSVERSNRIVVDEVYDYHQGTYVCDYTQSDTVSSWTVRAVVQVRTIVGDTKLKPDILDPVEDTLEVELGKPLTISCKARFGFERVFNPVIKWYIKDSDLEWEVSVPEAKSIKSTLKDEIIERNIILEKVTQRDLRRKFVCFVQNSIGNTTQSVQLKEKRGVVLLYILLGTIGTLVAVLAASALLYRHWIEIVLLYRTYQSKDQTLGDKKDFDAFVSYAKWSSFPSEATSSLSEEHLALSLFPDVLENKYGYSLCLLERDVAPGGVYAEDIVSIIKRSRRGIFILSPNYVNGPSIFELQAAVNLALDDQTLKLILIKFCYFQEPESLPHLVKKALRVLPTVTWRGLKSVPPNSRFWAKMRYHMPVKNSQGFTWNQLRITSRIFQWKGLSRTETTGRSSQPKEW
Nature of the experiment: cell-based or functional assay.

B1: IL-18 variant G3Q, E6S, S55V, T63A, N91T (ligand)
chain: YFQKLSSKLSVIRNLNDQVLFIDQGNRPLFEDMTDSDMRDNAPRTIFIISMYKDVQPRGMAVAISVKSEKISTLSSENKIISFKEMNPPDTIKDTKSDIIFFQRSVPGHDNKMQFESSSYEGYFLASEKERDLFKLILKKEDELGDRSIMFTVQNED
As for B1, in experiment [1], the “Activity, +100 nM BP, DF-1000002” value turned out to be 1.15; the “Activity, +100 nM BP, DF-5000003” value is 0.46; the “Activity, +100 nM BP, DF-25000004” value came out at 0.15; the “Ratio (-BP/+BP), DF-1000005” value came out at 1.68. Moreover, in experiment [1], the “Ratio (-BP/+BP), DF-5000006” value is 4.03 and the “Ratio (-BP/+BP), DF-25000007” value stood at 10.7. Moreover, in experiment [2], the “Activity, No BP, DF-100000” value is 1.94; the “Activity, No BP, DF-500000” value was 1.84; the “Activity, No BP, DF-2500000” value amounted to 1.61.

B2: IL-18 variant G3S, E6G, D54V, S55K, T63S, N91Y, R104T (ligand)
chain: YFSKLGSKLSVIRNLNDQVLFIDQGNRPLFEDMTDSDMRDNAPRTIFIISMYKVKQPRGMAVSISVKSEKISTLSSENKIISFKEMNPPDYIKDTKSDIIFFQTSVPGHDNKMQFESSSYEGYFLASEKERDLFKLILKKEDELGDRSIMFTVQNED
With B2, in experiment [1], the “Activity, +100 nM BP, DF-1000002” value came out at 1.64; the “Activity, +100 nM BP, DF-5000003” value was determined as 0.85; the “Activity, +100 nM BP, DF-25000004” value amounted to 0.32; the “Ratio (-BP/+BP), DF-1000005” value is 1.19. In experiment [1], the “Ratio (-BP/+BP), DF-5000006” value worked out at 2.08 and the “Ratio (-BP/+BP), DF-25000007” value is 3.88. Further, in experiment [2], the “Activity, No BP, DF-100000” value was determined as 1.95; the “Activity, No BP, DF-500000” value stood at 1.77; the “Activity, No BP, DF-2500000” value came out at 1.26.

B3: IL-18 variant G3Q, E6N, D54Y, S55P, T63S, N91S, R104H (ligand)
chain: YFQKLNSKLSVIRNLNDQVLFIDQGNRPLFEDMTDSDMRDNAPRTIFIISMYKYPQPRGMAVSISVKSEKISTLSSENKIISFKEMNPPDSIKDTKSDIIFFQHSVPGHDNKMQFESSSYEGYFLASEKERDLFKLILKKEDELGDRSIMFTVQNED
In the case of B3, in experiment [1], the “Activity, +100 nM BP, DF-1000002” value is 0.9; the “Activity, +100 nM BP, DF-5000003” value was found to be 0.42; the “Activity, +100 nM BP, DF-25000004” value stood at 0.14; the “Ratio (-BP/+BP), DF-1000005” value was 1.52. In experiment [1], the “Ratio (-BP/+BP), DF-5000006” value is 1.76 and the “Ratio (-BP/+BP), DF-25000007” value is 1.97. In addition, in experiment [2], the “Activity, No BP, DF-100000” value was found to be 1.37; the “Activity, No BP, DF-500000” value worked out at 0.75; the “Activity, No BP, DF-2500000” value worked out at 0.28.

B4: IL-18 variant G3I, E6D, D54A, S55F, N91Y, R104H (ligand)
chain: YFIKLDSKLSVIRNLNDQVLFIDQGNRPLFEDMTDSDMRDNAPRTIFIISMYKAFQPRGMAVTISVKSEKISTLSSENKIISFKEMNPPDYIKDTKSDIIFFQHSVPGHDNKMQFESSSYEGYFLASEKERDLFKLILKKEDELGDRSIMFTVQNED
Take B4: in experiment [1], the “Activity, +100 nM BP, DF-1000002” value stood at 2.05; the “Activity, +100 nM BP, DF-5000003” value amounted to 1.45; the “Activity, +100 nM BP, DF-25000004” value came to 0.74; the “Ratio (-BP/+BP), DF-1000005” value turned out to be 1.02. Further, in experiment [1], the “Ratio (-BP/+BP), DF-5000006” value came to 1.35 and the “Ratio (-BP/+BP), DF-25000007” value turned out to be 1.81. Also, in experiment [2], the “Activity, No BP, DF-100000” value turned out to be 2.1; the “Activity, No BP, DF-500000” value was found to be 1.96; the “Activity, No BP, DF-2500000” value amounted to 1.34.

B5: IL-18 variant G3Q, E6K, D54S, S55P, T63S, N91S, R104Q (ligand)
chain: YFQKLKSKLSVIRNLNDQVLFIDQGNRPLFEDMTDSDMRDNAPRTIFIISMYKSPQPRGMAVSISVKSEKISTLSSENKIISFKEMNPPDSIKDTKSDIIFFQQSVPGHDNKMQFESSSYEGYFLASEKERDLFKLILKKEDELGDRSIMFTVQNED
In the case of B5, in experiment [1], the “Activity, +100 nM BP, DF-1000002” value is 1.55; the “Activity, +100 nM BP, DF-5000003” value worked out at 1.15; the “Activity, +100 nM BP, DF-25000004” value turned out to be 0.45; the “Ratio (-BP/+BP), DF-1000005” value was 1.24. Also, in experiment [1], the “Ratio (-BP/+BP), DF-5000006” value was found to be 1.67 and the “Ratio (-BP/+BP), DF-25000007” value is 3.14. Besides, in experiment [2], the “Activity, No BP, DF-100000” value was 1.92; the “Activity, No BP, DF-500000” value amounted to 1.92; the “Activity, No BP, DF-2500000” value is 1.4.

B6: IL-18 variant G3Q, E6G, D54N, S55H, T63V, N91M, R104T (ligand)
chain: YFQKLGSKLSVIRNLNDQVLFIDQGNRPLFEDMTDSDMRDNAPRTIFIISMYKNHQPRGMAVVISVKSEKISTLSSENKIISFKEMNPPDMIKDTKSDIIFFQTSVPGHDNKMQFESSSYEGYFLASEKERDLFKLILKKEDELGDRSIMFTVQNED
Regarding B6, in experiment [1], the “Activity, +100 nM BP, DF-1000002” value came to 1.83; the “Activity, +100 nM BP, DF-5000003” value worked out at 1.38; the “Activity, +100 nM BP, DF-25000004” value came out at 0.7; the “Ratio (-BP/+BP), DF-1000005” value turned out to be 1.09. In experiment [1], the “Ratio (-BP/+BP), DF-5000006” value came out at 1.32 and the “Ratio (-BP/+BP), DF-25000007” value is 1.44. Moreover, in experiment [2], the “Activity, No BP, DF-100000” value was determined as 1.99; the “Activity, No BP, DF-500000” value was found to be 1.82; the “Activity, No BP, DF-2500000” value is 1.01.

B7: IL-18 variant G3Q, E6H, D54N, S55I, T63S, N91V (ligand)
chain: YFQKLHSKLSVIRNLNDQVLFIDQGNRPLFEDMTDSDMRDNAPRTIFIISMYKNIQPRGMAVSISVKSEKISTLSSENKIISFKEMNPPDVIKDTKSDIIFFQRSVPGHDNKMQFESSSYEGYFLASEKERDLFKLILKKEDELGDRSIMFTVQNED
With B7, in experiment [1], the “Activity, +100 nM BP, DF-1000002” value stood at 1.8; the “Activity, +100 nM BP, DF-5000003” value stood at 1.43; the “Activity, +100 nM BP, DF-25000004” value was 0.71; the “Ratio (-BP/+BP), DF-1000005” value was determined as 1.05. Besides, in experiment [1], the “Ratio (-BP/+BP), DF-5000006” value stood at 1.33 and the “Ratio (-BP/+BP), DF-25000007” value was 2.31. Also, in experiment [2], the “Activity, No BP, DF-100000” value was 1.89; the “Activity, No BP, DF-500000” value came out at 1.9; the “Activity, No BP, DF-2500000” value was determined as 1.64.

B8: IL-18 variant G3Y, E6N, N91Y, R104S (ligand)
chain: YFYKLNSKLSVIRNLNDQVLFIDQGNRPLFEDMTDSDMRDNAPRTIFIISMYKDSQPRGMAVTISVKSEKISTLSSENKIISFKEMNPPDYIKDTKSDIIFFQSSVPGHDNKMQFESSSYEGYFLASEKERDLFKLILKKEDELGDRSIMFTVQNED
Regarding B8, in experiment [1], the “Activity, +100 nM BP, DF-1000002” value stood at 1.78; the “Activity, +100 nM BP, DF-5000003” value was determined as 1.2; the “Activity, +100 nM BP, DF-25000004” value came out at 0.6; the “Ratio (-BP/+BP), DF-1000005” value was 1.05. Further, in experiment [1], the “Ratio (-BP/+BP), DF-5000006” value came to 1.5 and the “Ratio (-BP/+BP), DF-25000007” value is 2.59. In addition, in experiment [2], the “Activity, No BP, DF-100000” value came to 1.87; the “Activity, No BP, DF-500000” value stood at 1.79; the “Activity, No BP, DF-2500000” value came out at 1.54.

B9: IL-18 variant G3E, E6G, N91M, R104A (ligand)
chain: YFEKLGSKLSVIRNLNDQVLFIDQGNRPLFEDMTDSDMRDNAPRTIFIISMYKDSQPRGMAVTISVKSEKISTLSSENKIISFKEMNPPDMIKDTKSDIIFFQASVPGHDNKMQFESSSYEGYFLASEKERDLFKLILKKEDELGDRSIMFTVQNED
As to B9, in experiment [1], the “Activity, +100 nM BP, DF-1000002” value was 1.93; the “Activity, +100 nM BP, DF-5000003” value is 1.41; the “Activity, +100 nM BP, DF-25000004” value was 0.53; the “Ratio (-BP/+BP), DF-1000005” value was found to be 1.06. In experiment [1], the “Ratio (-BP/+BP), DF-5000006” value stood at 1.41 and the “Ratio (-BP/+BP), DF-25000007” value was determined as 2.92. In experiment [2], the “Activity, No BP, DF-100000” value turned out to be 2.05; the “Activity, No BP, DF-500000” value was found to be 2; the “Activity, No BP, DF-2500000” value worked out at 1.54.

Source of the values: patent US20240182536A1 (MURAL ONCOLOGY, published 2024).
